Results published in article doi:10.1101/2025.01.27.635082 (bioRxiv, 2025).

B1: mouse phosphomannomutase 2 (Pmm2) (enzyme, UniProt Q9Z2M7 1-242, looked up)
chain: MATLCLFDMDGTLTAPRQKITEEMDGFLQKLRQKTKIGVVGGSDFEKLQEQLGNDVVEKYDYVFPENGLVAYKDGKLLCKQNIQGHLGEDVIQDLINYCLSYIANIKLPKKRGTFIEFRNGMLNVSPIGRSCSQEERIEFYELDKKEHIRQKFVADLRKEFAGKGLTFSIGGQISIDVFPEGWDKRYCLRHLEHAGYKTIYFFGDKTMPGGNDHEIFTDPRTVGYTVTAPEDTRRICEGLFP
B2: human phosphomannomutase 2 (hPMM2) (enzyme)
chain: MAAPGPALCLFDVDGTLTAPRQKITKEMDDFLQKLRQKIKIGVVGGSDFEKVQEQLGNDVVEKYDYVFPENGLVAYKDGKLLCRQNIQSHLGEALIQDLINYCLSYIAKIKLPKKRGTFIEFRNGMLNVSPIGRSCSQEERIEFYELDKKENIRQKFVADLRKEFAGKGLTFSIGGQISFDVFPDGWDKRYCLRHVENDGYKTIYFFGDKTMPGGNDHEIFTDPRTMGYSVTAPEDTRRICELLFS

Target: the molecule itself
Experiment: SEC

Protein | stoichiometry N
B1 | 2
B2 | 2
